Measured values: patent US20240010684A1 (Bayer, published 2024)
Bridges are numbered along the chain shown (N, C = ends). Where no end group is shown, it is not given here. [ ]: non-standard residue; d: D form. Oic = O=C(O)[C@@H]1C[C@@H]2CCCC[C@@H]2N1; tBuAla = CC(C)(C)C[C@H](N)C(=O)O; Pen = CC(C)(S)[C@H](N)C(=O)O; NMeC = CN[C@@H](CS)C(=O)O; Orn = NCCC[C@H](N)C(=O)O; Dap = NC[C@H](N)C(=O)O; PEG2 = NCCOCCOCCC(=O)O; Ahx = NCCCCCC(=O)O

B1: Example 81: (3-Azido-L-Alanine)++-GAIC+SRS-((tBu)A)-PPIC+IP-(L-Propargylglycine)++-NH2 (1,2,3-triazole-1,4-diyl) (peptide)
peptide: [3‑azido‑L‑alanine]GAICSRS[tBuAla]PPICIP[L‑propargylglycine]-NH2
modifications: triazole 1-16; disulfide 5-13; also: TFA salt
B2: Example 82: (Ahx)**-GAIC+SRSLP-(Oic)-I-(Pen)+-IPE++-NH2 (peptide)
peptide: [Ahx]GAICSRSLP[Oic]I[Pen]IPE-NH2
modifications: disulfide 5-13; lactam N-16; also: TFA salt
B3: Example 83: (Ahx)**-GIC+SRSLP-(Oic)-I-(Pen)+-IPE++-NH2 (peptide)
peptide: [Ahx]GICSRSLP[Oic]I[Pen]IPE-NH2
modifications: disulfide 4-12; lactam N-15; also: TFA salt
B4: Example 84: (Ahx)**-GaIC+SRSLP-(Oic)-I-(Pen)+-IPE++-NH2 (peptide)
peptide: [Ahx]G[dA]ICSRSLP[Oic]I[Pen]IPE-NH2
modifications: disulfide 5-13; lactam N-16; also: TFA salt
B5: Example 85: (Dap)++-IC+SRSLP-(Oic)-I-(Pen)+-IP** (peptide)
peptide: [Dap]ICSRSLP[Oic]I[Pen]IP
modifications: lactam 1-C; disulfide 3-11; also: TFA salt
B6: Example 86: (Dap)++-(Dap)-IC+SRSLP-(Oic)-I-(Pen)+-IP** (peptide)
peptide: [Dap][Dap]ICSRSLP[Oic]I[Pen]IP
modifications: lactam 1-C; disulfide 4-12; also: TFA salt
B7: Example 87: (Dap)**-IC+SRSLP-(Oic)-I-(Pen)+-IP** (peptide)
peptide: cyclo([Dap]ICSRSLP[Oic]I[Pen]IP)
modifications: disulfide 3-11; also: TFA salt
B8: Example 88: I**C+SRS-((tBu)A)-PPI-(Pen)+-IP** (HCl Salt) (peptide)
peptide: cyclo(ICSRS[tBuAla]PPI[Pen]IP)
modifications: disulfide 2-10; also: HCl salt
B9: Example 17: A**GGIC+SRSLPPIC+IPd** (peptide)
peptide: cyclo(AGGICSRSLPPICIP[dD])
modifications: disulfide 5-13; also: TFA salt
B10: Example 90: E++GIC+SRSLP-(Oic)-I-(Pen)+-IPK++-NH2 (peptide)
peptide: EGICSRSLP[Oic]I[Pen]IPK-NH2
modifications: lactam 1-15; disulfide 4-12; also: TFA salt
B11: Example 91: E++GIC+SRSLP-(Oic)-I-(Pen)+-IPDK++-NH2 (peptide)
peptide: EGICSRSLP[Oic]I[Pen]IPDK-NH2
modifications: lactam 1-16; disulfide 4-12; also: TFA salt
B12: Example 94: (Ahx)**-GIC+SRSLPPIC+IPD** (HCl Salt) (peptide)
peptide: cyclo([Ahx]GICSRSLPPICIPD)
modifications: disulfide 4-12; also: HCl salt
B13: Example 95: (Ahx)**-IC+SRSLP-(Oic)-IC+I** (peptide)
peptide: cyclo([Ahx]ICSRSLP[Oic]ICI)
modifications: disulfide 3-11; also: TFA salt
B14: Example 96: (Orn)**-GIC+SRS-((tBu)A)-PPI-(Pen)+-IP** (peptide)
peptide: cyclo([Orn]GICSRS[tBuAla]PPI[Pen]IP)
modifications: disulfide 4-12; also: TFA salt
B15: Example 97: (Dap)**-(Dap)-IC+SRS-((tBu)A)-PPI-(Pen)+-IP** (peptide)
peptide: cyclo([Dap][Dap]ICSRS[tBuAla]PPI[Pen]IP)
modifications: disulfide 4-12; also: TFA salt
B16: Example 18: A**GGIC+SRSLPPIC+IPD** (peptide)
peptide: cyclo(AGGICSRSLPPICIPD)
modifications: disulfide 5-13; also: TFA salt
B17: Example 19: a**GGIC+SRSLPPIC+IPD** (peptide)
peptide: cyclo([dA]GGICSRSLPPICIPD)
modifications: disulfide 5-13; also: TFA salt
B18: Example 20: (Dap)++-GGIC+SRSLPPIC+IPD** (peptide)
peptide: [Dap]GGICSRSLPPICIPD
modifications: lactam 1-C; disulfide 5-13; also: TFA salt
B19: Example 21: G**SGIC+SRSLPPIC+IPDS** (peptide)
peptide: cyclo(GSGICSRSLPPICIPDS)
modifications: disulfide 5-13; not fully specified; printed as G**SGIC+SRSLPPIC+IPDS**; also: TFA salt
B20: Example 22: K++GIC+SRSLPPIC+IPD** (peptide)
peptide: KGICSRSLPPICIPD
modifications: lactam 1-C; disulfide 4-12; also: TFA salt
B21: Example 23: (Dap)**-(Dap)-GIC+SRSLPPIC+IPD** (peptide)
peptide: cyclo([Dap][Dap]GICSRSLPPICIPD)
modifications: disulfide 5-13; also: TFA salt
B22: Example 24: (PEG1(10 atoms))**-GIC+SRSLPPIC+IPD** (peptide)
peptide: cyclo([PEG2]GICSRSLPPICIPD)
modifications: disulfide 4-12; also: TFA salt
B23: Example 25: (Ahx)**-AIC+SRSLP-(Oic)-IC+IP** (peptide)
peptide: cyclo([Ahx]AICSRSLP[Oic]ICIP)
modifications: disulfide 4-12; also: TFA salt
B24: Example 26: A**GAIC+SRS-((tBu)A)-PPI-(Pen)+-IPD** (peptide)
peptide: cyclo(AGAICSRS[tBuAla]PPI[Pen]IPD)
modifications: disulfide 5-13; also: TFA salt
B25: Example 27: (Ahx)**-AIC+SRS-((tBu)A)-PPI-(Pen)+-IPD** (peptide)
peptide: cyclo([Ahx]AICSRS[tBuAla]PPI[Pen]IPD)
modifications: disulfide 4-12; also: TFA salt
B26: Example 29: A**GGIC+SRS-((tBu)A)-PPI-(Pen)+-IPD** (peptide)
peptide: cyclo(AGGICSRS[tBuAla]PPI[Pen]IPD)
modifications: disulfide 5-13; also: TFA salt
B27: Example 32: (Ahx)**-AIC+SRS-((tBu)A)-PPI-((N-Me)C)+-IPD** (peptide)
peptide: cyclo([Ahx]AICSRS[tBuAla]PPI[NMeC]IPD)
modifications: disulfide 4-12; also: TFA salt
B28: Example 34: (PEG1(10 atoms))**-AIC+SRS-((tBu)A)-PPI-(Pen)+-IPD** (peptide)
peptide: cyclo([PEG2]AICSRS[tBuAla]PPI[Pen]IPD)
modifications: disulfide 4-12; also: TFA salt
B29: Example 37: G**AIC+SRSLPPIC+IPD++-NH2 (peptide)
peptide: GAICSRSLPPICIPD-NH2
modifications: disulfide 4-12; lactam N-15; also: TFA salt

These binders were tested against T1, recombinant human MASP1 (amino acids 297-699, C-terminal His Tag) (human, UniProt P48740 297-699) (assay: cell-based or functional assay).
T1 sequence: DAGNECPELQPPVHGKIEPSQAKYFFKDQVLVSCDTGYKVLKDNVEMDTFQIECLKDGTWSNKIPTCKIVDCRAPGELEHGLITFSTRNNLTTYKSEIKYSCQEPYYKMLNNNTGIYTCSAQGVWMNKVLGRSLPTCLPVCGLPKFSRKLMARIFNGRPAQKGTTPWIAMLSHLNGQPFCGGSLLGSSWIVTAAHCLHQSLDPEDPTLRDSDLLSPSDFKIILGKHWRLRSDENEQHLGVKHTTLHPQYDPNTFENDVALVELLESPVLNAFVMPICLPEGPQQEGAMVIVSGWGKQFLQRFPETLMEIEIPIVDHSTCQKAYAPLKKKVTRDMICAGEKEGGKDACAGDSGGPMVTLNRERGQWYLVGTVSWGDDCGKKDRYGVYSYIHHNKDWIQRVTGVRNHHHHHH

First: B1
Second: B2
The “human MASP1 IC50” value of the first is 3.8-fold lower: 18 nM for the first, 69 nM for the second.

B3 and B4 are within 1.5-fold of each other in “human MASP1 IC50” value: 18 nM for the first, 15 nM for the second.

Compared with B5, B6 is 37-fold lower in “human MASP1 IC50” value: 1000 nM for the first, 27 nM for the second.

First: B7
Second: B8
The “human MASP1 IC50” value of the first is 22-fold lower: 46 nM for the first, 1000 nM for the second.

Compared with B9, B10 is 2.7-fold lower in “human MASP1 IC50” value: 26 nM for the first, 9.8 nM for the second.

Going from B11 to B12, the “human MASP1 IC50” value rises from 29 nM to 120 nM (4.1-fold).

Compared with B13, B14 is 4.3-fold lower in “human MASP1 IC50” value: 100 nM for the first, 23 nM for the second.

First: B15
Second: B16
The “human MASP1 IC50” value of the first is 10-fold lower: 5 nM for the first, 50 nM for the second.

B17 and B18 are within 1.5-fold of each other in “human MASP1 IC50” value: 49 nM for the first, 55 nM for the second.

B19 and B20 are within 1.5-fold of each other in “human MASP1 IC50” value: 170 nM for the first, 190 nM for the second.

Going from B21 to B22, the “human MASP1 IC50” value falls from 180 nM to 110 nM (1.6-fold).

Compared with B23, B24 is 5-fold lower in “human MASP1 IC50” value: 60 nM for the first, 12 nM for the second.

B25 and B26 are within 1.5-fold of each other in “human MASP1 IC50” value: 9.1 nM for the first, 8.6 nM for the second.

First: B27
Second: B28
The “human MASP1 IC50” value of the first is 2-fold higher: 22 nM for the first, 11 nM for the second.

In the case of B29, the “human MASP1 IC50” value is reported as 16 nM.

These binders were tested against recombinant human MASP2 (amino acids 297-686, C-terminal His Tag) (human, UniProt O00187 297-686) (assay: cell-based or functional assay).
Chain of recombinant human MASP2 (amino acids 297-686, C-terminal His Tag) (O00187 other isoform, or with tags, fused parts or gaps limits assumed): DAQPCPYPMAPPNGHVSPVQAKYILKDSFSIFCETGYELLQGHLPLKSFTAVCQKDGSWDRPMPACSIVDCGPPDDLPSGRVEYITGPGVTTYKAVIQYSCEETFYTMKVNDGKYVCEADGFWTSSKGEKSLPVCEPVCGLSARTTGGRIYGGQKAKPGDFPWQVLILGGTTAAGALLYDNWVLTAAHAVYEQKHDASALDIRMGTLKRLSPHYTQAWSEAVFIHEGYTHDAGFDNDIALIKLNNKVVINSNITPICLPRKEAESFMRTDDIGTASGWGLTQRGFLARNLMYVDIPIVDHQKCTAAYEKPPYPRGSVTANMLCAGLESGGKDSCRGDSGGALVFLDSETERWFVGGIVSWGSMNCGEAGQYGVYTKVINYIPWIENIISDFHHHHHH

First: B1
Second: B2
The “human MASP2 IC50” value of the first is 3-fold lower: 230 nM for the first, 700 nM for the second.

B3 and B4 are within 1.5-fold of each other in “human MASP2 IC50” value: 91 nM for the first, 87 nM for the second.

B5 and B6 are the same in “human MASP2 IC50” value: 1000 nM for the first, 1000 nM for the second.

B7 and B8 are within 1.5-fold of each other in “human MASP2 IC50” value: 700 nM for the first, 1000 nM for the second.

B9 and B10 are within 1.5-fold of each other in “human MASP2 IC50” value: 88 nM for the first, 110 nM for the second.

Going from B11 to B12, the “human MASP2 IC50” value rises from 71 nM to 130 nM (1.8-fold).

First: B13
Second: B14
The “human MASP2 IC50” value of the first is 3.6-fold lower: 110 nM for the first, 400 nM for the second.

First: B15
Second: B16
The “human MASP2 IC50” value of the first is 51-fold higher: 760 nM for the first, 15 nM for the second.

First: B17
Second: B18
The “human MASP2 IC50” value of the first is 1.9-fold higher: 210 nM for the first, 110 nM for the second.

B19 and B20 are within 1.5-fold of each other in “human MASP2 IC50” value: 120 nM for the first, 91 nM for the second.

Compared with B21, B22 is 10-fold higher in “human MASP2 IC50” value: 20 nM for the first, 210 nM for the second.

First: B23
Second: B24
The “human MASP2 IC50” value of the first is 3.6-fold higher: 610 nM for the first, 170 nM for the second.

Going from B25 to B26, the “human MASP2 IC50” value rises from 37.5 nM to 68 nM (1.8-fold).

Compared with B27, B28 is 1.5-fold higher in “human MASP2 IC50” value: 63.5 nM for the first, 98 nM for the second.

In the case of B29, the “human MASP2 IC50” value is reported as 140 nM.
